From patent US7776563B2, “Methods for identifying agents for treating cardiovascular disease using inhibition of myeloperoxidase binding” (The Cleveland Clinic Foundation, priority 2004, dated 2010)
Ends that are not written are not given here.

Molecular target: binding of human apoA-1 to isolated human MPO (Homo sapiens, UniProt P05164)
Test: Binding of human apoA-1 to plate-bound MPO in the presence of peptide
Conditions: isolated human MPO bound to wells of a 96 well plate; apoA-1 binding determined in presence of peptide; FIG. 9
Protocol: Isolated human MPO was bound to the wells in a 96 well plate and then the binding of human apoA-1 to the MPO was determined in the presence of a peptide comprising the sequence N-Ac-(L) AEYHAKATEHLSTL, SEQ ID NO: 2 (also known as the L-ApoA-MPO peptide), a sequence comprising SEQ ID NO: 2 and D amino acids, also known as the D-apoA-MPO peptide, and a peptide comprising the sequence, N-Ac (L) KHETHSLAYAAET, SEQ ID NO: 4.

binding of human apoA-1 to isolated human MPO, sequence (P05164 279-745 limits assumed): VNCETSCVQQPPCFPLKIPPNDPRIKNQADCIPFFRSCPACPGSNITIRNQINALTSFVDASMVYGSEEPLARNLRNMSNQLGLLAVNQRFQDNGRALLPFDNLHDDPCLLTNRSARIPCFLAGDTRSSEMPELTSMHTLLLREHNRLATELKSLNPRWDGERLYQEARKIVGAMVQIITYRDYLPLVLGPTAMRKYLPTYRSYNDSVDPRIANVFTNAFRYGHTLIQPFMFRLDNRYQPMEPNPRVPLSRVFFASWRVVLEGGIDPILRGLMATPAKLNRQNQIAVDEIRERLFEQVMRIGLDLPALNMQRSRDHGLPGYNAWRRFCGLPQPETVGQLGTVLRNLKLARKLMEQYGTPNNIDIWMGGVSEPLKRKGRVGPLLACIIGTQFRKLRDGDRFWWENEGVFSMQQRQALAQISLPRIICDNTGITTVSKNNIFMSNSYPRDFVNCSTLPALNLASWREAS
binding of human apoA-1 to isolated human MPO, sequence (P05164 165-278 limits assumed): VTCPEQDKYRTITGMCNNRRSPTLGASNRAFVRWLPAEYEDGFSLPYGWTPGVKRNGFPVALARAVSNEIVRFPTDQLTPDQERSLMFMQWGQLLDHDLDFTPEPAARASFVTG

Row | Substance | effect on binding of apo A-1 to MPO
1 | D-apoA-MPO peptide: a sequence comprising SEQ ID NO: 2 (AEYHAKATEHLSTL) and D amino acids (also: D amino acids (positions not given here); listed as Homo sapiens) | inhibited binding of apo A-1 to MPO
2 | N-Ac (L) KHETHSLAYAAET (Ac-KHETHSLAYAAET; listed as Homo sapiens) [SEQ ID NO: 4, reference compound] | had no effect on MPO-apoA-1 binding
3 | N-Ac-(L) AEYHAKATEHLSTL (Ac-AEYHAKATEHLSTL; listed as Homo sapiens) [L-ApoA-MPO peptide] | inhibited binding of apo A-1 to MPO
